{"source": "the DeepSol protein solubility set", "data": [{"test": "soluble on expression in E. coli; label from the status in PepcDB or PDB records", "values": [{"sequence": "MLPKAFLSRMAELLGEEFPAFLKALTEGKRTYGLRVNTLKLPPEAFQRISPWPLRPIPWCQEGFYYPEEARPGPHPFFYAGLYYIQEPSAQAVGVLLDPKPGERVLDLAAAPGGKTTHLAARMGGKGLLLANEVDGKRVRGLLENVERWGAPLAVTQAPPRALAEAFGTYFHRVLLDAPCSGEGMFRKDREAARHWGPSAPKRMAEVQKALLAQASRLLGPGGVLVYSTCTFAPEENEGVVAHFLKAHPEFRLEDARLHPLFAPGVPEWGEGNPELLKTARLWPHRLEGEGHFLARFRKEGGAWSTPRLERPSPLSQEALRAFRGFLEEAGLTLEGPVLDRAGHLYLLPEGLPTLLGLKAPAPGLYLGKVQKGRFLPARALALAFGATLPWPEGLPRLALTPEDPRALAFATGEGVAWEGEDHPLALVVLKTAAGEFPLDFGKAKRGVLRPVGVGLRSHHHHHH", "soluble on expression in E. coli": "soluble"}, {"sequence": "MSRRSRSRSRSPKRDREERKRREDRDRDRERKRDRKDRERKRRHRSSSSEGSQAEPHQLGSIFREERRRRERNESPKLPPPPPPPPSDPPVDTSIPFDVSTLNEPTKKWLEEKIVEQVSARVHQLEAMMAEKATSARNEMEKMLRAQIEAEMAVELAECKKRDEESRKKCKQLEAELERKVLEAEESRKKFEEDRLAMLEQKSQLERDRAELARQKSDMKKNEQQAILNKSGNSRAPIKFKFGK", "soluble on expression in E. coli": "not soluble"}, {"sequence": "MKTVLLTGFDPFGGESINPAWEVAKSLHEKTIGEYKIISKQVPTVFHKSISVLKEYIEELAPEFIICIGQAGGRPDITIERVAINIDDARIADNEGNQPVDVPVVEEGPAAYWSTLPMKAIVKKLQEEGIPASVSQTAGTFVCNHLFYGLMHELEKHDTKMKGGFIHIPFLPEQASNYPGQPSMSLSTIRKGIELAVEVTTTVEVDIVEVGGTTH", "soluble on expression in E. coli": "soluble"}, {"sequence": "KAHGNFPVYRNTDVTFLPTGEAFFEKMKEELLKAKKYIFLEFFIIDEGIMWGEILSILEQKVEEGVEVRILYDGMIEITKLSFDYTKRLEKIGIKAKAFSPISPFISTYYNYRDHRKIVVIDGVVGMTGGVNLADEYINHIELFGHWKDSGIMLKGKAVDSFLLLFLQMWSITEEKMLVAPYLGVHDDLVENEGYVIPYGDSPLDTDKVGENV", "soluble on expression in E. coli": "not soluble"}, {"sequence": "MGSDKIHHHHHHMIISASRRTDIPAFYSQWFFNRIKEGYVLVPNPFNPKMISKVSLHPAVIDCIVFWTKNPAPMIDKLDHLQDYKYYFQFTLNPYGEKLENNLPSVNKRIDIFKRLSDKIGKEKVIWRYDPILTNEEYDVSFHKEAFAQIAYGLKDHTEKCMLGFIDHYQHIRTAVGQFNIQPLRKEEIEEIAVSFRNTINEYPAIQLDTCTSKVDLRHLGIPAGLCIDKELIERITGYPLLAKKDKNQRNVCNCIESIDIGTYESCLNGCIYCYAIKGNYNSVEYNTKKHDRNSPLLIGHPAEDDVVKEREMKSLRNNQYSLF", "soluble on expression in E. coli": "not soluble"}, {"sequence": "MGGSHHHHHHGMASGKSDFLTPKAIANRIKSKGLQKLRWYCQMCQKQCRDENGFKCHCMSESHQRQLLLASENPQQFMDYFSEEFRNDFLELLRRRFGTKRVHNNIVYNEYISHREHIHMNATQWETLTDFTKWLGREGLCKVDETPKGWYIQYIDRDPETIRRQLELEKKKKQDLDDEEKTAKFIEEQVRRGLEGKEQEVPTFTELSRENDEEKVTFNLSKGACSSSGATSSKSSTLGPSALKTIGSSASVKRKESSQSSTQSKEKKKKKSALDEIMEIEEEKKRTARTDYWLQPEIIVKIITKKLGEKYHKKKAIVKEVIDKYTAVVKMIDSGDKLKLDQTHLETVIPAPGKRILVLNGGYRGNEGTLESINEKTFSATIVIETGPLKGRRVEGIQYEDISKLA", "soluble on expression in E. coli": "not soluble"}, {"sequence": "GPEAERAEMLAWFDRINAERRRAGMVAVLTRRCNLACPYCFEGGQAPEGDMSEETADLLAAMIEREYLAKGWRVDMDFYGGEPLLRPDLIRRIAEPLRAAGGGLFHGNMVSNGSLLNRAVMTDLTALGIESVKVTLDGPPQVHDRYRPYGGGAGSFHDILRGMGEVVDLVKIHVGGNFTRETWREYPALLDLLLAEGFTPDRLGTVRFTP", "soluble on expression in E. coli": "not soluble"}, {"sequence": "MNKYEEVLQELIKASGIEGAAIVSLDGLPIASVLPANAEEDKVAAMSAAILSLGERVVEELGKGTMEQITIKGDKGYVVITEIGQDAVLTTLAGQDSKLGLIYMEIKKAQQKLKELI", "soluble on expression in E. coli": "not soluble"}, {"sequence": "MLMSIREDVVEATSSIVPEKIHSDARNFSLVTSSSQVRSPLYLKSLDADGEDNSTVEKQITHSKKVADTELDRSLECLKENENDVKTNGEVELSAVEDALIQVVPEVSENQNPRKIGPYDFDQHANFLNS", "soluble on expression in E. coli": "not soluble"}, {"sequence": "MAHHHHHHMSDEDHDFAHQGGGDNASKTYPMAAGALKKGGYVCINGRPCKVIDLSVSKTGKHGHAKVSIVATDIFTGNRLEDQAPSTHNVEVPFVKTFTYSVLDIQPNEDPSLPSHLSLMDDEGESREDLDMPPDAALATQIKEQFDSGKEVLVVVVSAMGTEQVLQTKNAAEK", "soluble on expression in E. coli": "soluble"}, {"sequence": "MGSDKIHHHHHHSLQAQSTVSHNLANVDTVGFKAALANTEAFQIRGKGYPSRIDALHVDQGFDRSQGHQKVTGNPLDVSLQQDRWLAVQSPDGSEAYTRNGELALTANGQLVTANGHAVLDEGGNPMTIPPHQAMEIGSDGSISIIPQGEGPQTMAIVGKMKVVDAPADRLMRRPDGLMRNTSTDPAQAFAVATGKTVNSGMLEGSNVDAAGALVEMIQLQRQFEMQVKIIKNGDDNAQSANSLLRVSG", "soluble on expression in E. coli": "not soluble"}, {"sequence": "MGSDKIHHHHHHMSVSIIDRLQAIFQDVRVSEFMNPDVIYVTPDKTLLHVKEIMRIKRISGVPVVDDKKRVVGIVSLEDIIKALEGSYIKDSVEKRMTKNVVCLKETDTLQDAVKTFEKYGYGRFPVVDDEGKLVGIVTKHDIIYFLLAKLGIMYLHDKRMEEVLEKGTSLITGEVLEKGKADFVFHIDYFDVNMIGIGASKLKRFLLERGVDEELARRIAIATYEAEANVVIHSESDGYIYCFIDNEKITVRVEDRGKGIENLELAMREGYSTAPDHIRELGFGAGMGLPNMKRYSDKMVIISEVGKGVIVEMVFFRRDRGEDKGDSGKTGA", "soluble on expression in E. coli": "not soluble"}, {"sequence": "AIASGAYDESAMSDETTDSFWEVGNYKRTVKRIEDGHRLCNDMMSCIQERAKIEKAYSQQLTDWSKRWRQLVERGPQYGTLERAWLAVMTEAEKVSELHQEVKNNLLNEDLEKVKNWQKDAYHKQMMGGFKETKEADEGFRKAQKPWAKKLKELETAKKTYHMACKEEKIASAREANSKGEASVTTDQQKKLQEKVDKCKNDVQKAKEKYEKSLDELNKCTPQYMENMEVVFDQCQQFEEKRLNFLREVLLDTKRHLNLTESQSYATVYRELERTIVSASAQEDLKWFSSVHGPGMHMNWPQFEEFNPDLSHAISKKEKVKRNHDGVTLTQVTHGAEHGTPQTGDRGSVSSYEKNQQYSAEWSDDEQPPTAAQSASETNGGNPFEEDSKGVRVRALYDYEGQEQDELTFKAGDELTKLEDEDEQGWCKGRLDSGQLGLYPANYVEPV", "soluble on expression in E. coli": "soluble"}, {"sequence": "GSHMGPVEILPFLYLGSAYHASKCEFLANLHITALLNVSRRTSEACMTHLHYKWIPVEDSHTADISSHFQEAIDFIDCVREKGGKVLVHSEAGISRSPTICMAYLMKTKQFRLKEAFDYIKQRRSMVSPNFGFMGQLLQYESEILPSTPNPQPPSCQGEAAGSSLIGHLQTLSPDMQGAYCTFPASVLAPVPTHSTVSELSRSPVATATSC", "soluble on expression in E. coli": "soluble"}, {"sequence": "MATPEGQAEEKAVKLAAEEINAQGGILGYKVEVVVGDTKLDSNTATSEFRRLATVENADVIIGGFSSGVMTAMMETMAETKTLFLSDASSPAHAQKVEQNYEKYKYWFRVSQNNGSTFALDLADMVKFLRDSGYEVKKVYIIRDEHVWTDPVMAALKPLLEEMGVEIVKDVKIPRGYSEYEQLILEAESLNADLIMPILAISGTGDVLAKQWATLKPNLLLAGHDLAPIDPEFYEKTNGMANYEIFLADGGALVTAPPTEKCREFVEAYKAKYGHYPESHQAYGAYDAVYLYKMVVEMAAKNGEKDPFNPDVLVKYLEKFDASNPVKLTRTIAFYPNHDLMWGDDYVRNWISQWQDGKQYIIYPPSVANGELKLPPWIEK", "soluble on expression in E. coli": "not soluble"}, {"sequence": "MVSYQILLLLVSILPLTYSIRTSKWHFSGKLLCPLYTFKYHLEVFEEDYFRKTDDLLTNQTEVSSISPHLYKVDAEETDDGLDFGRHFEIYMLIIHDCNPDRYVKSLKVDWGKYHIDIEFVTFYALKFEIFSEVSEVKDIDVFGKGSAL", "soluble on expression in E. coli": "not soluble"}]}]}
